# Like-named read-outs stand apart in the source and are kept apart here.
# Legend:
# gliadin [1] = settings: Gli4-FAM-PEG-rGO/Q-glia fluorescence at 520 nm; differs from Table 1 value
# [2] = tested on: lactose protein (as named; milk protein presumably); settings: Gli4-FAM-PEG-rGO/Q-glia fluorescence at 520 nm; specificity control
# [3] = tested on: Q-gliadin (gliadin-BHQ-1 quencher conjugate); settings: Gli4-FAM-PEG-rGO fluorescence at 520 nm; SE 0.02
# gliadin [4] = settings: Gli4-FAM-PEG-rGO/Q-glia fluorescence recovery at 520 nm, 100 nM aptamer; SE 0.1912; p66 gives about 0.11 ppm
sequence,measurement,setting,value
CCAGTCTCCCGTTTACCGCGCCTACACATGTCTGAATGCC [Gli4-FAM],Kd,gliadin [1],0.11 ppm
same,Kd,[2],13.2 ppm
same,Kd,[3],148 ppm
same,Kd,gliadin [4],0.76 ppm
